According to patent US20150105316A1 (TREVENA, published 2015):
Where no end group is shown, it is not given here. [ ]: non-standard residue; d: D form. Tle = CC(C)(C)[C@H](N)C(=O)O; Ac6c = NC1(C(=O)O)CCCCC1; cyPen = not defined here; Sar = CNCC(=O)O

Key:
Assay in all cases: cell-based or functional assay
[1] = target: T1, human angiotensin 2 type 1 receptor (human, UniProt P30556 1-359)
T1 sequence (looked up): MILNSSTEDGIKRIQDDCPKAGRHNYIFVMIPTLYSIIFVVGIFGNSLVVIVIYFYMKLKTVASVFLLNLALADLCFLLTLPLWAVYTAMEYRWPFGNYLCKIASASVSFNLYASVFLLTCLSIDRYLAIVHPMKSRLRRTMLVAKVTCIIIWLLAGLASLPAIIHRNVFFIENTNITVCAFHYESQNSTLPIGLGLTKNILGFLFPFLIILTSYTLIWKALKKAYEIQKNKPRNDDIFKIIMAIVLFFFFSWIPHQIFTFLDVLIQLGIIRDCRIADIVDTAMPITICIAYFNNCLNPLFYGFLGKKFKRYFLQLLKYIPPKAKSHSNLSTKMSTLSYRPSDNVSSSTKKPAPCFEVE

[2] = target: T2, rat angiotensin 2 type 1 receptor (rat, UniProt P25095 1-359)
T2 sequence (looked up): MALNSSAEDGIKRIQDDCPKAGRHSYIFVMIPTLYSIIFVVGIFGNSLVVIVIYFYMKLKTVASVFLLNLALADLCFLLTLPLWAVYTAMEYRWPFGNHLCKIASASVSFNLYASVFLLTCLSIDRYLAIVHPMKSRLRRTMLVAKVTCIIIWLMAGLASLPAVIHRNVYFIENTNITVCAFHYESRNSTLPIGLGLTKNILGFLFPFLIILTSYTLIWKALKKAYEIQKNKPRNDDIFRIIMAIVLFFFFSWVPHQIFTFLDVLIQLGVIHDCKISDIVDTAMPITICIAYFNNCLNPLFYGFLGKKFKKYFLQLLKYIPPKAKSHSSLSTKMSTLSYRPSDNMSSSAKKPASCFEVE

[3] = target: T1, human angiotensin 2 type 1 receptor; remark: listed apart in the source
[4] = target: T2, rat angiotensin 2 type 1 receptor; remark: listed apart in the source

[Sar]RVY[Ac6c]HPI [SEQ ID NO: 11 (Sar-Arg-Val-Tyr-cyHex-His-Pro-Ile)]
IP1 G-protein assay EC50 [1]: > 1.3 nM
IP1 G-protein assay Span [1]: < 103
IP1 G-protein assay pEC50 [1]: < 9.2
IP1 G-protein assay EC50 [2]: > 0.6 nM
IP1 G-protein assay pEC50 [2]: > 9.2
beta-arrestin2 assay EC50 [3]: > 3.2 nM
beta-arrestin2 assay Span [3]: < 101
beta-arrestin2 assay pEC50 [3]: < 8.5
beta-arrestin2 assay EC50 [4]: > 3.2 nM
beta-arrestin2 assay Span [4]: < 105
beta-arrestin2 assay pEC50 [4]: < 8.5

[Sar]RVYPHPL [SEQ ID NO: 5 (Sar-Arg-Val-Tyr-Pro-His-Pro-Leu)]
IP1 G-protein assay EC50 [1]: 3.2 nM
IP1 G-protein assay Span [1]: < 103
IP1 G-protein assay pEC50 [1]: < 9.2
IP1 G-protein assay EC50 [2]: > 0.6 nM
IP1 G-protein assay Span [2]: < 104
IP1 G-protein assay pEC50 [2]: < 9.2
beta-arrestin2 assay EC50 [3]: > 3.2 nM
beta-arrestin2 assay Span [3]: < 101
beta-arrestin2 assay pEC50 [3]: < 8.5
beta-arrestin2 assay EC50 [4]: > 3.2 nM
beta-arrestin2 assay Span [4]: < 105
beta-arrestin2 assay pEC50 [4]: < 8.5

[Sar]RVYPHPI [SEQ ID NO: 4 (Sar-Arg-Val-Tyr-Pro-His-Pro-Ile)]
IP1 G-protein assay EC50 [1]: 2.5 nM
IP1 G-protein assay Span [1]: < 103
IP1 G-protein assay pEC50 [1]: < 9.2
IP1 G-protein assay EC50 [2]: > 0.6 nM
IP1 G-protein assay pEC50 [2]: > 9.2
beta-arrestin2 assay EC50 [3]: > 3.2 nM
beta-arrestin2 assay Span [3]: < 101
beta-arrestin2 assay pEC50 [3]: < 8.5
beta-arrestin2 assay EC50 [4]: > 3.2 nM
beta-arrestin2 assay Span [4]: < 105
beta-arrestin2 assay pEC50 [4]: < 8.5

[Sar]RVY[Ac6c]HPW [SEQ ID NO: 54 (Sar-Arg-Val-Tyr-cyHex-His-Pro-Trp)]
IP1 G-protein assay EC50 [1]: > 1.3 nM
IP1 G-protein assay Span [1]: < 103
IP1 G-protein assay pEC50 [1]: < 9.2
IP1 G-protein assay EC50 [2]: > 0.6 nM
IP1 G-protein assay Span [2]: < 104
IP1 G-protein assay pEC50 [2]: < 9.2
beta-arrestin2 assay EC50 [3]: > 3.2 nM
beta-arrestin2 assay Span [3]: < 101
beta-arrestin2 assay pEC50 [3]: < 8.5
beta-arrestin2 assay EC50 [4]: > 3.2 nM
beta-arrestin2 assay Span [4]: < 105
beta-arrestin2 assay pEC50 [4]: < 8.5

[Sar]RVY[Ac6c]HPY [SEQ ID NO: 55 (Sar-Arg-Val-Tyr-cyHex-His-Pro-Tyr)]
IP1 G-protein assay EC50 [1]: > 1.3 nM
IP1 G-protein assay Span [1]: < 103
IP1 G-protein assay pEC50 [1]: < 9.2
IP1 G-protein assay EC50 [2]: > 0.6 nM
IP1 G-protein assay Span [2]: < 104
IP1 G-protein assay pEC50 [2]: < 9.2
beta-arrestin2 assay EC50 [3]: > 3.2 nM
beta-arrestin2 assay Span [3]: < 101
beta-arrestin2 assay pEC50 [3]: < 8.5
beta-arrestin2 assay EC50 [4]: > 3.2 nM
beta-arrestin2 assay Span [4]: < 105
beta-arrestin2 assay pEC50 [4]: < 8.5

[Sar]RVYPHPT [SEQ ID NO: 7 (Sar-Arg-Val-Tyr-Pro-His-Pro-Thr)]
IP1 G-protein assay EC50 [1]: > 10000 nM
IP1 G-protein assay pEC50 [1]: > 9.2
IP1 G-protein assay EC50 [2]: > 0.6 nM
IP1 G-protein assay pEC50 [2]: > 9.2
beta-arrestin2 assay EC50 [3]: > 3.2 nM
beta-arrestin2 assay Span [3]: < 101
beta-arrestin2 assay pEC50 [3]: < 8.5
beta-arrestin2 assay EC50 [4]: > 3.2 nM
beta-arrestin2 assay Span [4]: < 105
beta-arrestin2 assay pEC50 [4]: < 8.5

[Sar]RVYPHPM [SEQ ID NO: 9 (Sar-Arg-Val-Tyr-Pro-His-Pro-Met)]
IP1 G-protein assay EC50 [1]: 5 nM
IP1 G-protein assay Span [1]: < 103
IP1 G-protein assay pEC50 [1]: < 9.2
IP1 G-protein assay EC50 [2]: > 0.6 nM
IP1 G-protein assay Span [2]: < 104
IP1 G-protein assay pEC50 [2]: < 9.2
beta-arrestin2 assay EC50 [3]: > 3.2 nM
beta-arrestin2 assay Span [3]: < 101
beta-arrestin2 assay pEC50 [3]: < 8.5
beta-arrestin2 assay EC50 [4]: > 3.2 nM
beta-arrestin2 assay Span [4]: < 105
beta-arrestin2 assay pEC50 [4]: < 8.5

[Sar]RVYPHPV [SEQ ID NO: 6 (Sar-Arg-Val-Tyr-Pro-His-Pro-Val)]
IP1 G-protein assay EC50 [1]: 63.1 nM
IP1 G-protein assay Span [1]: < 103
IP1 G-protein assay pEC50 [1]: < 9.2
IP1 G-protein assay EC50 [2]: > 0.6 nM
IP1 G-protein assay Span [2]: < 104
IP1 G-protein assay pEC50 [2]: < 9.2
beta-arrestin2 assay EC50 [3]: > 3.2 nM
beta-arrestin2 assay Span [3]: < 101
beta-arrestin2 assay pEC50 [3]: < 8.5
beta-arrestin2 assay EC50 [4]: > 3.2 nM
beta-arrestin2 assay Span [4]: < 105
beta-arrestin2 assay pEC50 [4]: < 8.5

[Sar]RVYPHP[dA] [SEQ ID NO: 60 (Sar-Arg-Val-Tyr-Pro-His-Pro-D-Ala)]
IP1 G-protein assay EC50 [1]: > 1.3 nM
IP1 G-protein assay Span [1]: < 103
IP1 G-protein assay pEC50 [1]: < 9.2
IP1 G-protein assay EC50 [2]: > 0.6 nM
IP1 G-protein assay Span [2]: < 104
IP1 G-protein assay pEC50 [2]: < 9.2
beta-arrestin2 assay EC50 [3]: > 3.2 nM
beta-arrestin2 assay Span [3]: < 101
beta-arrestin2 assay pEC50 [3]: < 8.5
beta-arrestin2 assay EC50 [4]: > 3.2 nM
beta-arrestin2 assay Span [4]: < 105
beta-arrestin2 assay pEC50 [4]: < 8.5

[Sar]RVY[Ac6c]HP[Tle] [SEQ ID NO: 56 (Sar-Arg-Val-Tyr-cyHex-His-Pro-AA02)]
IP1 G-protein assay EC50 [1]: > 1.3 nM
IP1 G-protein assay Span [1]: < 103
IP1 G-protein assay pEC50 [1]: < 9.2
IP1 G-protein assay EC50 [2]: > 0.6 nM
IP1 G-protein assay Span [2]: < 104
IP1 G-protein assay pEC50 [2]: < 9.2
beta-arrestin2 assay EC50 [3]: > 3.2 nM
beta-arrestin2 assay Span [3]: < 101
beta-arrestin2 assay pEC50 [3]: < 8.5
beta-arrestin2 assay EC50 [4]: > 3.2 nM
beta-arrestin2 assay Span [4]: < 105
beta-arrestin2 assay pEC50 [4]: < 8.5

[Sar]RVYPHPF [SEQ ID NO: 10 (Sar-Arg-Val-Tyr-Pro-His-Pro-Phe)]
IP1 G-protein assay EC50 [1]: 1.3 nM
IP1 G-protein assay Span [1]: < 103
IP1 G-protein assay pEC50 [1]: < 9.2
IP1 G-protein assay EC50 [2]: > 0.6 nM
IP1 G-protein assay Span [2]: < 104
IP1 G-protein assay pEC50 [2]: < 9.2
beta-arrestin2 assay EC50 [3]: > 3.2 nM
beta-arrestin2 assay Span [3]: < 101
beta-arrestin2 assay pEC50 [3]: < 8.5
beta-arrestin2 assay EC50 [4]: 3.2 nM
beta-arrestin2 assay Span [4]: > 105
beta-arrestin2 assay pEC50 [4]: 8.5

[Sar]RVY[cyPen]HPA (reading uncertain; also: printed as Sar-Arg-Val-Tyr-cyPen-His-Pro-Ala) [SEQ ID NO: 3 (Sar-Arg-Val-Tyr-cyPen-His-Pro-Ala)]
IP1 G-protein assay EC50 [1]: > 10000 nM
IP1 G-protein assay pEC50 [1]: > 9.2
IP1 G-protein assay EC50 [2]: > 0.6 nM
IP1 G-protein assay pEC50 [2]: > 9.2
beta-arrestin2 assay Span [3]: < 101
beta-arrestin2 assay Span [4]: < 105

[Sar]RVYPHPS [SEQ ID NO: 8 (Sar-Arg-Val-Tyr-Pro-His-Pro-Ser)]
IP1 G-protein assay EC50 [1]: 6310 nM
IP1 G-protein assay Span [1]: < 103
IP1 G-protein assay pEC50 [1]: < 9.2
IP1 G-protein assay EC50 [2]: > 0.6 nM
IP1 G-protein assay pEC50 [2]: > 9.2
beta-arrestin2 assay EC50 [3]: > 3.2 nM
beta-arrestin2 assay Span [3]: < 101
beta-arrestin2 assay pEC50 [3]: < 8.5
beta-arrestin2 assay EC50 [4]: > 3.2 nM
beta-arrestin2 assay Span [4]: < 105
beta-arrestin2 assay pEC50 [4]: < 8.5
